# Assay results from publication PMC6888979 (The Journal of Experimental Medicine, 2019).
# B1: soluble recombinant ectodomain of murine FIBCD1 (mFIBCD1^Ecto) (domain or fragment)
# chain: NHTHTPGTAPPPIVSTGTAGANSALVTVERADSSHLSLLIDPRCPDLTDSFARLEGIQASILRALSEHQAQPRLDGAPELLDALADQLPRLLTRASELQAECAGLRKGHSLLGQGLSTLQSEQGRLIQLLSESQGHMAHLVNSVSDVLEALQRERGLGRPRVKADLQRAPSRGARPRGCANGSRPRDCLDVLLSGQQDDGVYSIFPTHYPAGFQVYCDMRTDGGGWTVFQRREDGSVNFFRGWEAYREGFGKLTGEHWLGLKRIHALTTQAAYELHVDLEDFDNGTAYAHYGSFGVGLFSVDPEEDGYPLTVADYSGTAGDSLLKHSGMRFTTKDRDSDHSENNCAAFYRGAWWYRNCHTSNLNGQYLRGAHASYADGVEWSSWTGWQYSLKFSEMKIRPVREDR
# Molecular target: the molecule itself
protein,measurement,value
B1,stoichiometry N,4
